Source: publication PMC8294582

target: RNA polymerase II, P24928; test: coimmunoprecipitation (anti-FLAG beads, Western blot quantification); settings: chain shown with the change; tSETD2-FLAG on anti-Flag beads incubated with HEK293 cell lysate; parent: est. 82; read off a plot

response (% of input bound)	Binder
17	truncated form of human WT SETD2, FLAG-tagged (tSETD2-FLAG, aa1418–2564), Q9BYW2 H2514A (protein) DGELQDRKKVRVEVEQGETSVPPGSALVGPSCVMDDFRDPQRWKECAKQGKMPCYFDLIEENVYLTERKKNKSHRDIKRMQCECTPLSKDERAQGEIACGEDCLNRLLMIECSSRCPNGDYCSNRRFQRKQHADVEVILTEKKGWGLRAAKDLPSNTFVLEYCGEVLDHKEFKARVKEYARNKNIHYYFMALKNDEIIDATQKGNCSRFMNHSCEPNCETQKWTVNGQLRVGFFTTKLVPSGSELTFDYQFQRYGKEAQKCFCGSANCRGYLGGENRVSIRAAGGKMKKERSRKKDSVDGELEALMENGEGLSDKNQVLSLSRLMVRIETLEQKLTCLELIQNTHSQSCLKSFLERHGLSLLWIWMAELGDGRESNQKLQEEIIKTLEHLPIPTKNMLEESKVLPIIQRWSQTKTAVPPLSEGDGYSSENTSRAHTPLNTPDPSTKLSTEADTDTPKKLMFRRLKIISENSMDSAISDATSELEGKDGKEDLDQLENVPVEEEEELQSQQLLPQQLPECKVDSETNIEASKLPTSEPEADAEIEPKESNGTKLEEPINEETPSQDEEEGVSDVESERSQEQPDKTVDISDLATKLLDSWKDLKEVYRIPKKSQTEKENTTTERGRDAVGFRDQTPAPKTPNRSRERDPDKQTQNKEKRKRRSSLSPPSSAYERGTKRPDDRYDTPTSKKKVRIKDRNKLSTEERRKLFEQEVAQREAQKQQQQMQNLGMTSPLPYDSLGYNAPHHPFAGYPPGYPMQAYVDPSNPNAGKVLLPTPSMDPVCSPAPYDHAQPLVGHSTEPLSAPPPVPVVPHVAAPVEVSSSQYVAQSDGVVHQDSSVAVLPVPAPGPVQGQNYSVWDSNQQSVSVQQQYSPAQSQATIYYQGQTCPTVYGVTSPYSQTTPPIVQSYAQPSLQYIQGQQIFTAHPQGVVVQPAAAVTTIVAPGQPQPLQPSEMVVTNNLLDLPPPSPPKPKTIVLPPNWKTARDPEGKIYYYHVITRQTQWDPPTWESPGDDASLEHEAEMDLGTPTYDENPMKASKKPKTAEADTSSELAKKSKEVFRKEMSQFIVQCLNPYRKPDCKVGRITTTEDFKHLARKLTAGVMNKELKYCKNPEDLECNENVKHKTKEYIKKYMQKFGAVYKPKEDTELE
76	truncated form of human WT SETD2, FLAG-tagged (tSETD2-FLAG, aa1418–2564), Q9BYW2 V2483A (protein) DGELQDRKKVRVEVEQGETSVPPGSALVGPSCVMDDFRDPQRWKECAKQGKMPCYFDLIEENVYLTERKKNKSHRDIKRMQCECTPLSKDERAQGEIACGEDCLNRLLMIECSSRCPNGDYCSNRRFQRKQHADVEVILTEKKGWGLRAAKDLPSNTFVLEYCGEVLDHKEFKARVKEYARNKNIHYYFMALKNDEIIDATQKGNCSRFMNHSCEPNCETQKWTVNGQLRVGFFTTKLVPSGSELTFDYQFQRYGKEAQKCFCGSANCRGYLGGENRVSIRAAGGKMKKERSRKKDSVDGELEALMENGEGLSDKNQVLSLSRLMVRIETLEQKLTCLELIQNTHSQSCLKSFLERHGLSLLWIWMAELGDGRESNQKLQEEIIKTLEHLPIPTKNMLEESKVLPIIQRWSQTKTAVPPLSEGDGYSSENTSRAHTPLNTPDPSTKLSTEADTDTPKKLMFRRLKIISENSMDSAISDATSELEGKDGKEDLDQLENVPVEEEEELQSQQLLPQQLPECKVDSETNIEASKLPTSEPEADAEIEPKESNGTKLEEPINEETPSQDEEEGVSDVESERSQEQPDKTVDISDLATKLLDSWKDLKEVYRIPKKSQTEKENTTTERGRDAVGFRDQTPAPKTPNRSRERDPDKQTQNKEKRKRRSSLSPPSSAYERGTKRPDDRYDTPTSKKKVRIKDRNKLSTEERRKLFEQEVAQREAQKQQQQMQNLGMTSPLPYDSLGYNAPHHPFAGYPPGYPMQAYVDPSNPNAGKVLLPTPSMDPVCSPAPYDHAQPLVGHSTEPLSAPPPVPVVPHVAAPVEVSSSQYVAQSDGVVHQDSSVAVLPVPAPGPVQGQNYSVWDSNQQSVSVQQQYSPAQSQATIYYQGQTCPTVYGVTSPYSQTTPPIVQSYAQPSLQYIQGQQIFTAHPQGVVVQPAAAVTTIVAPGQPQPLQPSEMVVTNNLLDLPPPSPPKPKTIVLPPNWKTARDPEGKIYYYHVITRQTQWDPPTWESPGDDASLEHEAEMDLGTPTYDENPMKASKKPKTAEADTSSELAKKSKEVFRKEMSQFIAQCLNPYRKPDCKVGRITTTEDFKHLARKLTHGVMNKELKYCKNPEDLECNENVKHKTKEYIKKYMQKFGAVYKPKEDTELE
12	truncated form of human WT SETD2, FLAG-tagged (tSETD2-FLAG, aa1418–2564), Q9BYW2 F2505A (protein) DGELQDRKKVRVEVEQGETSVPPGSALVGPSCVMDDFRDPQRWKECAKQGKMPCYFDLIEENVYLTERKKNKSHRDIKRMQCECTPLSKDERAQGEIACGEDCLNRLLMIECSSRCPNGDYCSNRRFQRKQHADVEVILTEKKGWGLRAAKDLPSNTFVLEYCGEVLDHKEFKARVKEYARNKNIHYYFMALKNDEIIDATQKGNCSRFMNHSCEPNCETQKWTVNGQLRVGFFTTKLVPSGSELTFDYQFQRYGKEAQKCFCGSANCRGYLGGENRVSIRAAGGKMKKERSRKKDSVDGELEALMENGEGLSDKNQVLSLSRLMVRIETLEQKLTCLELIQNTHSQSCLKSFLERHGLSLLWIWMAELGDGRESNQKLQEEIIKTLEHLPIPTKNMLEESKVLPIIQRWSQTKTAVPPLSEGDGYSSENTSRAHTPLNTPDPSTKLSTEADTDTPKKLMFRRLKIISENSMDSAISDATSELEGKDGKEDLDQLENVPVEEEEELQSQQLLPQQLPECKVDSETNIEASKLPTSEPEADAEIEPKESNGTKLEEPINEETPSQDEEEGVSDVESERSQEQPDKTVDISDLATKLLDSWKDLKEVYRIPKKSQTEKENTTTERGRDAVGFRDQTPAPKTPNRSRERDPDKQTQNKEKRKRRSSLSPPSSAYERGTKRPDDRYDTPTSKKKVRIKDRNKLSTEERRKLFEQEVAQREAQKQQQQMQNLGMTSPLPYDSLGYNAPHHPFAGYPPGYPMQAYVDPSNPNAGKVLLPTPSMDPVCSPAPYDHAQPLVGHSTEPLSAPPPVPVVPHVAAPVEVSSSQYVAQSDGVVHQDSSVAVLPVPAPGPVQGQNYSVWDSNQQSVSVQQQYSPAQSQATIYYQGQTCPTVYGVTSPYSQTTPPIVQSYAQPSLQYIQGQQIFTAHPQGVVVQPAAAVTTIVAPGQPQPLQPSEMVVTNNLLDLPPPSPPKPKTIVLPPNWKTARDPEGKIYYYHVITRQTQWDPPTWESPGDDASLEHEAEMDLGTPTYDENPMKASKKPKTAEADTSSELAKKSKEVFRKEMSQFIVQCLNPYRKPDCKVGRITTTEDAKHLARKLTHGVMNKELKYCKNPEDLECNENVKHKTKEYIKKYMQKFGAVYKPKEDTELE
84	truncated form of human WT SETD2, FLAG-tagged (tSETD2-FLAG, aa1418–2564), Q9BYW2 R2510H (protein) DGELQDRKKVRVEVEQGETSVPPGSALVGPSCVMDDFRDPQRWKECAKQGKMPCYFDLIEENVYLTERKKNKSHRDIKRMQCECTPLSKDERAQGEIACGEDCLNRLLMIECSSRCPNGDYCSNRRFQRKQHADVEVILTEKKGWGLRAAKDLPSNTFVLEYCGEVLDHKEFKARVKEYARNKNIHYYFMALKNDEIIDATQKGNCSRFMNHSCEPNCETQKWTVNGQLRVGFFTTKLVPSGSELTFDYQFQRYGKEAQKCFCGSANCRGYLGGENRVSIRAAGGKMKKERSRKKDSVDGELEALMENGEGLSDKNQVLSLSRLMVRIETLEQKLTCLELIQNTHSQSCLKSFLERHGLSLLWIWMAELGDGRESNQKLQEEIIKTLEHLPIPTKNMLEESKVLPIIQRWSQTKTAVPPLSEGDGYSSENTSRAHTPLNTPDPSTKLSTEADTDTPKKLMFRRLKIISENSMDSAISDATSELEGKDGKEDLDQLENVPVEEEEELQSQQLLPQQLPECKVDSETNIEASKLPTSEPEADAEIEPKESNGTKLEEPINEETPSQDEEEGVSDVESERSQEQPDKTVDISDLATKLLDSWKDLKEVYRIPKKSQTEKENTTTERGRDAVGFRDQTPAPKTPNRSRERDPDKQTQNKEKRKRRSSLSPPSSAYERGTKRPDDRYDTPTSKKKVRIKDRNKLSTEERRKLFEQEVAQREAQKQQQQMQNLGMTSPLPYDSLGYNAPHHPFAGYPPGYPMQAYVDPSNPNAGKVLLPTPSMDPVCSPAPYDHAQPLVGHSTEPLSAPPPVPVVPHVAAPVEVSSSQYVAQSDGVVHQDSSVAVLPVPAPGPVQGQNYSVWDSNQQSVSVQQQYSPAQSQATIYYQGQTCPTVYGVTSPYSQTTPPIVQSYAQPSLQYIQGQQIFTAHPQGVVVQPAAAVTTIVAPGQPQPLQPSEMVVTNNLLDLPPPSPPKPKTIVLPPNWKTARDPEGKIYYYHVITRQTQWDPPTWESPGDDASLEHEAEMDLGTPTYDENPMKASKKPKTAEADTSSELAKKSKEVFRKEMSQFIVQCLNPYRKPDCKVGRITTTEDFKHLAHKLTHGVMNKELKYCKNPEDLECNENVKHKTKEYIKKYMQKFGAVYKPKEDTELE
